One assay concerns the target T1, wild-type human PCSK9 (human, UniProt Q8NBP7 31-692, limits assumed).
T1 construct: also called PCSK9 antigen
Nature of the assay: SPR (Biacore T100), average KD of the two 1F11 runs. The protocol: The CM5 chip was immobilized on all flowcells with mouse anti-human IgG (Fc specific) according to the Biacore Human Antibody Capture Kit (Cat# BR-1008-39) to ˜7000RU. Anti-PCSK9 antibodies were captured on the chip to ˜500RU followed by analyte injections of wild-type human PCSK9 from 64.1 nM to 2.0 nM. Each flowcell was regenerated between each analyte injection with 3M MgCl for 40 seconds at 10 uL/min. Data was analyzed with Biacore T100 Evaluation Software using the 1:1 binding model using at least 5 point concentration range sensogram.

Assay [1] has as its target T2, FcγRIIIa-V158 (Pichia pastoris produced) (UniProt P08637 17-208, limits assumed).
T2 construct: also called FcγRIIIA LV; FcgRIIIA LV
Nature of the assay: ELISA-type plate assay, FcγR coated, antibody dimerized with AP-conjugated goat anti-human IgG F(ab')2, RFU readout. The protocol: (§1) Fcγ receptor binding assays were carried out as described (Shields, et al. (2001) J. Biol. Chem. 276:6591-6604) with minor modifications. High protein binding 96-well plates (Corning Costar) were coated with 100 μL per well of Fcγ receptor solutions in PBS at the following concentrations: 1 μg/mL for both FcγRI (R&D Systems) and FcγRIIa (Pichia pastoris produced), 2 μg/mL for FcγRIIb (P. pastoris produced), 0.8 μg/mL for FcγRIIIa-F158, and 0.4 μg/mL for FcγRIIIa-V158 (both P. pastoris produced). All Pichia pastoris produced receptors were expressed and purified as described (Li, et al. (2006) Nature Biotechnology 24:210-215). Monomeric antibody samples added to the FcγRI plate were serially diluted in assay diluent (1×PBS, 1% BSA, and 0.05% Tween20) and 100 μL, per well was added to the plate. Antibody samples prepared for the remaining receptors require a one hour dimerization step with half molar ratio of goat anti-human IgG F(ab′)2 F(ab′)2 that is conjugated with alkaline phosphatase for detection. These dimerized F(ab′)2/antibody complexes were also serially diluted and 100 μL per well were added to the remaining receptor plates and all plates were incubated for one hour at room temperature. FcγRI bound sample antibody was detected using the same goat anti-human IgG F(ab′)2 alkaline phosphatase conjugated F(ab′)2. Sample antibody binding was quantified by measuring excitation at 340 nm and emission at 465 nm after 18 hour incubation with SuperPhos, 4-MUP Fluorescence AP Substrate Detection System (Virolabs).
(In general: ELISA stands for enzyme-linked immunosorbent assay.)

Assay [2] deals with T2, FcγRIIIa-V158 (Pichia pastoris produced). The description is as above. The protocol:
as §1
This is another data set of the same source.

Assay [3] has the same target. Described as above. The protocol:
as §1
This is another data set of the same source.

For assay [4] the target is unchanged. The assay is described as above. The protocol:
as §1
The source holds these as a separate data set.

For assay [5] the target is unchanged. The description is as above. The protocol: as §1
The source holds these as a separate data set.

Assay [6] shares this target. Described as above. The protocol: as §1
The source holds these as a separate data set.

Assay [7] has as its target T3, FcγRIIIa-F158 (Pichia pastoris produced) (UniProt P08637 17-208, limits assumed).
T3 construct: also called FcγRIIIA LF; FcgRIIIA LF
Kind of assay: FcγR affinity assay 'as described in Example 7', n = 3; printed as Affinity (nM) ± STDEV. The protocol: as §1

Assay [8] has as its target T2, FcγRIIIa-V158 (Pichia pastoris produced). The description is as above. The protocol: as §1
Assay [9] addresses T3, FcγRIIIa-F158 (Pichia pastoris produced). Kind of assay: ELISA on plate-coated receptor; antibody dimerized with anti-human IgG F(ab')2-AP; ELISA IC50, YGLY23258 (dimer), Table 4 experiment. The protocol:
as §1, with “These dimerized F(ab′)2/antibody complexes were also serially diluted and 100 μL per well were added to the remaining receptor plates and all plates were incubated for one hour at room temperature.” left out

Assay [10] deals with T2, FcγRIIIa-V158 (Pichia pastoris produced). Described as above. The protocol: as §1, with “These dimerized F(ab′)2/antibody complexes were also serially diluted and 100 μL per well were added to the remaining receptor plates and all plates were incubated for one hour at room temperature.” left out
The target of assay [11] is T3, FcγRIIIa-F158 (Pichia pastoris produced). Nature of the assay: ELISA on plate-coated receptor; antibody dimerized with anti-human IgG F(ab')2-AP; ELISA IC50, YGLY23258 (dimer), Table 6 experiment. The protocol:
as §1, with “These dimerized F(ab′)2/antibody complexes were also serially diluted and 100 μL per well were added to the remaining receptor plates and all plates were incubated for one hour at room temperature.” left out

Assay [12] has as its target T2, FcγRIIIa-V158 (Pichia pastoris produced). The assay is described as above. The protocol: as §1, with “These dimerized F(ab′)2/antibody complexes were also serially diluted and 100 μL per well were added to the remaining receptor plates and all plates were incubated for one hour at room temperature.” left out
Assay [13] concerns the target T3, FcγRIIIa-F158 (Pichia pastoris produced). Kind of assay: summary of the FcγR ELISAs; Table 8 summary: range of fold decrease over the ELISA experiments. The protocol: as §1, with “These dimerized F(ab′)2/antibody complexes were also serially diluted and 100 μL per well were added to the remaining receptor plates and all plates were incubated for one hour at room temperature.” left out

For assay [14] the target is unchanged. Kind of assay: fold change of the Table 12 affinities. The protocol:
as §1

Assay [15] deals with T2, FcγRIIIa-V158 (Pichia pastoris produced). Kind of assay: fold change of the Table 12 affinities. The protocol: as §1

Where two headings read alike, the source gives them in different places.

T2 sequence (P08637 17-208 F176V limits assumed): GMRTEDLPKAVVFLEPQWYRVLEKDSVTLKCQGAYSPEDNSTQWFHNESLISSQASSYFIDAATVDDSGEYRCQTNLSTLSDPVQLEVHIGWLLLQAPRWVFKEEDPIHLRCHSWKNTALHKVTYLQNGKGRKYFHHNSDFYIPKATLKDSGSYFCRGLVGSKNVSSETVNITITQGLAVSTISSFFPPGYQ
T3 sequence (P08637 17-208 limits assumed): as the sequence (P08637 17-208 F176V limits assumed) above, with V160F counted along it

B1: 1F11 wildtype (parent) humanized anti-PCSK9 monoclonal IgG1 antibody (antibody)
heavy: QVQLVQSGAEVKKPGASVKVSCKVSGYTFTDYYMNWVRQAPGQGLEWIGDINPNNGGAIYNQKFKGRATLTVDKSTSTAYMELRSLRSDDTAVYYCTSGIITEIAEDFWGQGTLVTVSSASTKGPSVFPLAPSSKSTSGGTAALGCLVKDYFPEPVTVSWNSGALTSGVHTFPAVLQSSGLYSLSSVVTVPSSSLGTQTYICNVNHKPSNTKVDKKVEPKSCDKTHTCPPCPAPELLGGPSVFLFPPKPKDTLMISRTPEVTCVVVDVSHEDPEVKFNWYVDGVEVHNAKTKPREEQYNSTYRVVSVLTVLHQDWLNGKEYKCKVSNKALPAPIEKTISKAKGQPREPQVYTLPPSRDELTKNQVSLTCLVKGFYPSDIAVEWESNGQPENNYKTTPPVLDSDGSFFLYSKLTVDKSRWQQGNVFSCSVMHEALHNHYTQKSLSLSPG
light: DIQMTQSPSSLSASVGDRVTITCKASQNVGTNVVWYQQKPGKAPKALIHSASYRYSGVPSRFSGSGSGTDFTLTISSLQPEDFATYYCQQYKTYPYTFGQGTKVEIKRTVAAPSVFIFPPSDEQLKSGTASVVCLLNNFYPREAKVQWKVDNALQSGNSQESVTEQDSKDSTYSLSSTLTLSKADYEKHKVYACEVTHQGLSSPVTKSFNRGEC
notes: Produced in glycoengineered Pichia pastoris GFI5.0 (strain YGLY21351); also called 1F11 IgG1 GS5.0; YGLY21351
For orientation: Kd means the constant that tells how readily two partners part at equilibrium. Low readings indicate higher affinity, high ones lower affinity. Usually EC50 (read off the curve) stands for the midpoint of the concentration-response curve. High values mean a less potent agent, low ones a more potent agent. Consider B1, for which the Kd with wild-type human PCSK9 came to 2.8 nM; in [7] it was 203 nM; in [8], 0.15 nM. The “EC50 (read off the curve)” value in assay [1] was around 0.04 µg/mL; in assay [2] it was around 0.05 µg/mL; in assay [3], around 0.03 µg/mL; in [4] it was around 0.04 µg/mL; in assay [5] it was around 0.03 µg/mL; in assay [6] it was around 0.03 µg/mL.

B2: 1F11 IgG1 F243A/V264A double mutein anti-PCSK9 antibody (antibody)
heavy: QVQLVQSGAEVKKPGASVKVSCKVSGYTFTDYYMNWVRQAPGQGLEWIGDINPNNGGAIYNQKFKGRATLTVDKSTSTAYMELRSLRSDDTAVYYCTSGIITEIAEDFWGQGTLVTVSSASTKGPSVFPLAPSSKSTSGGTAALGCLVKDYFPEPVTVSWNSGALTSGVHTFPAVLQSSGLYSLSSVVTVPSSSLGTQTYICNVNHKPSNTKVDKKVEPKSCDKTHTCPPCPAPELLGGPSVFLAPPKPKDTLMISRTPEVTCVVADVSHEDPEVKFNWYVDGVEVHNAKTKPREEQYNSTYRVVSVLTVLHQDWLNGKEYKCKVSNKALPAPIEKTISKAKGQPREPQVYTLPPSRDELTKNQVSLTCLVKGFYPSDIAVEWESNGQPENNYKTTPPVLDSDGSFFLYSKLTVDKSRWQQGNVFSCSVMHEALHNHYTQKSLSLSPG
light: DIQMTQSPSSLSASVGDRVTITCKASQNVGTNVVWYQQKPGKAPKALIHSASYRYSGVPSRFSGSGSGTDFTLTISSLQPEDFATYYCQQYKTYPYTFGQGTKVEIKRTVAAPSVFIFPPSDEQLKSGTASVVCLLNNFYPREAKVQWKVDNALQSGNSQESVTEQDSKDSTYSLSSTLTLSKADYEKHKVYACEVTHQGLSSPVTKSFNRGEC
notes: sialylated N-glycans; also called 1F11 DM; YGLY23258
Usually IC50 stands for the concentration that gives 50% inhibition. Consider B2, for which the half-maximal inhibitory concentration (IC50) stood at 0.69 µg/mL in [9], 0.12 µg/mL in [10], 1.17 µg/mL in assay [11] and 0.16 µg/mL in [12]. The “EC50 (read off the curve)” value is around 0.1 µg/mL in assay [1]; around 0.1 µg/mL in [2]; around 0.1 µg/mL in assay [3]; around 0.1 µg/mL in assay [4]; around 0.2 µg/mL in [5]; around 0.2 µg/mL in assay [6]. Moreover, the “decreased affinity fold vs wildtype parent antibody produced in GS 5.0” value in assay [13] is 8 to 60 fold. Besides, the “fold change in affinity vs 1F11 IgG1 GS5.0” value in assay [14] was 12 fold; in [15], 647 fold. For the same molecule, the equilibrium dissociation constant (Kd) in [7] was 2520 nM; in [8] it was 97 nM.

For the origin of these results see patent US20140086916A1 (Merck Sharp & Dohme, published 2014).
